From article PMC10632514 (2023)
Where no end group is shown, it is not given here. The star is where a group is joined. Palmitoyl = CCCCCCCCCCCCCCCC(=O)*

B1: rmAb 235 IgG1 (antibody, V domains shown)
VH: QVQLQQSGTDLVRPGTSVKVSCKASGYAFTTYFIEWVKQRPGQGLEWIGVINPGSGIPNYNEMFKGKATLTADKSSSTAYLHLSSLTSDDSAVYFCARAPYYYGSSYYYFDVWGAGTTVTVSS
VL: DIVMSQSPSSLAVSVGEKVTMSCKSSQSLLYSSNQKNYLAWYQQKPGQSPKLLIYWASTRDSGVPDRFTGSGSGTDFTLTISSVKAEDLAVYCCQQYYNYPFTFGAGTKLEIK
B2: N-terminally palmitoylated MPER peptide (peptide)
peptide: Palmitoyl-DLLELDKWASLWNWFNITNWLWYIK
B3: rmAb 460 IgG1 (antibody, V domains shown)
VH: EVQLQQSGAELVKPGASVKLSCTASGFNIKDTYMHWVKQRPEQGLEWIGRIDPANGNTKYDPKFQGKATITADTSSNTAYLQLSSLTSEDTAVYFCTRSRGYFGNYYFDYWGQGTTLTVSS
VL: QIVLTQSPAVMSASPGERVTMTCSASSSVSYMYWYQQKPRSSPKPWIYLTSNLASGVPARFSGSGSGTSYSLTISSMEAEDAATYYCQQWSSIPLTFGAGTKLELK

How the values were obtained:
Assay in all cases: SPR; liposome-bound MPER
[1] = target: B2
275 = target: 275
274 = target: 274
203 = target: 203
484 = target: 484

Binder	Kd [1] [nM]	Kd 275 [nM]	Kd 274 [nM]	Kd 203 [nM]	Kd 484 [nM]
B1	11	–	–	–	–
B2	–	18	63	29	5.5
B3	14	–	–	–	–
